The values that follow are results of earlier work, collected in patent US20180185417.

The target in the data set is CD31 (PECAM-1) (Homo sapiens) (UniProt P16284). To be noted: CITED reported affinity of the commercial aptamer (1.14×10−9 M), method not stated.

With CD31 aptamer (APTSCI CD31-2196BCI), the Kd was 1.14 nM.
